Experimental data from patent US20240141007A1.

Biological target: human FcRn (human) (UniProt P55899)
Experiment: SPR, hFcRn as ligand

Kd: 518 nM
Substance: Ipilimumab (antibody)
